Common to all, as to experiment: cross-linking; engineered disulfide bridge in purified EF1; overnight with 400 µM DTNB (oxidised), 10 mM DTT (reduced), 30 mM DTT (re-reduced); SDS-PAGE with non-oxidizing sample buffer, Coomassie; yield from the change of the γ-band, oxidized against reduced; immunoblots against α and γ
(In general: In western blotting, separated proteins are transferred to a membrane and probed.)

In assay [1] the target is E. coli F1-ATPase subunit α with αP281C, in the cysteine-free EF1 mutant FH4 (Escherichia coli) (UniProt P0ABB0).
Assay [2] addresses E. coli F1-ATPase subunit α with αE284C, in the cysteine-free EF1 mutant GH19 (Escherichia coli) (UniProt P0ABB0).
The target of assay [3] is E. coli F1-ATPase subunit α with αP280C, in the cysteine-free EF1 mutant GH54 (Escherichia coli) (UniProt P0ABB0).

Regarding “E. coli F1-ATPase subunit γ with γK109C and γI279C, in the cysteine-free EF1 mutant FH4 (natural protein)”, in assay [1], the cross-link yield was 85%.
Turning to “E. coli F1-ATPase subunit γ with γK109C, γA213C and γL276C, in the cysteine-free EF1 mutant GH19 (natural protein)”, the cross-link yield in assay [2] is > 95%.
As to “E. coli F1-ATPase subunit γ with γK109C, γA213C and γG282C, in the cysteine-free EF1 mutant GH54 (natural protein)”, the cross-link yield in assay [3] is 90%.

The record behind these values is publication PMC3536650.
